Assay [1] deals with T1, GAL4 activation domain fusion to HAB1 E203D (Arabidopsis thaliana (Mouse-ear cress), UniProt Q9CAJ0 4-511).
T1 construct: Mutant of the pACT-HAB1 template, which lacks the three N-terminal amino acids of HAB1
T1 sequence: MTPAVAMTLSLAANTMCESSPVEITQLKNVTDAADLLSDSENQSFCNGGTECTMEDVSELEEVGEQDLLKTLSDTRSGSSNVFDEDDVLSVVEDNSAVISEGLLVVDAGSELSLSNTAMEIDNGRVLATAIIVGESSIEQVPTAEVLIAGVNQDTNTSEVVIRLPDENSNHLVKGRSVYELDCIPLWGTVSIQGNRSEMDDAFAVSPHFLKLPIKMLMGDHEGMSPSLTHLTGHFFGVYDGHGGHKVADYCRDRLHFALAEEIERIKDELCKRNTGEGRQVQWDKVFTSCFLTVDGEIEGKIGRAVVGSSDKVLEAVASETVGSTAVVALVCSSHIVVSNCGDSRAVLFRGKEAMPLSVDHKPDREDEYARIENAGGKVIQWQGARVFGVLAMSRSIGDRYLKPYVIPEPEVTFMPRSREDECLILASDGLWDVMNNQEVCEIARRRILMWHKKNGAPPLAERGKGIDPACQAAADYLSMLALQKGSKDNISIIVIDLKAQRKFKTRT
Put plainly: Y2H, beta-gal staining.

Assay [2] concerns the target T2, GAL4 activation domain fusion to HAB1 I383G (Arabidopsis thaliana (Mouse-ear cress), UniProt Q9CAJ0 4-511).
T2 construct: Mutant of the pACT-HAB1 template, which lacks the three N-terminal amino acids of HAB1
T2 sequence: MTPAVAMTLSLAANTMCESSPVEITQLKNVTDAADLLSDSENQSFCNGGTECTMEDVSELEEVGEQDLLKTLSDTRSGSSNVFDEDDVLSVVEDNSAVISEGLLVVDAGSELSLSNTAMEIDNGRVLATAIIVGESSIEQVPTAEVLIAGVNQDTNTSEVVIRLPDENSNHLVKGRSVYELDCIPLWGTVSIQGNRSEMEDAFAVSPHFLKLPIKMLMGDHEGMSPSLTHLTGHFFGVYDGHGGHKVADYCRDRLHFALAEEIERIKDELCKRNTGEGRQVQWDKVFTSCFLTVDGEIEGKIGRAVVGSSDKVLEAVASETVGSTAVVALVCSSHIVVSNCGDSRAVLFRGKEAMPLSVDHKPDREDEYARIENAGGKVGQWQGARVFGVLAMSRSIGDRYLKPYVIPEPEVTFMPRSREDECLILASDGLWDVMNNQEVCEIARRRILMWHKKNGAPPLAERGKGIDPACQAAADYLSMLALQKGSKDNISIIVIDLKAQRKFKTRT
Put plainly: Y2H, beta-gal staining.

B1: GAL4 DNA binding domain fusion to PYR1 (pBD-PYR1), wild type (receptor)
chain: MKLLSSIEQACDICRLKKLKCSKEKPKCAKCLKNNWECRYSPKTKRSPLTRAHLTEVESRLERLEQLFLLIFPREDLDMILKMDSLQDIKALLTGLFVQDNVNKDAVTDRLASVETDMPLTLRQHRISATSSSEESSNKGQRQLTVSMPSELTPEERSELKNSIAEFHTYQLDPGSCSSLHAQRIHAPPELVWSIVRRFDKPQTYKHFIKSCSVEQNFEMRVGCTRDVIVISGLPANTSTERLDILDDERRVTGFSIIGGEHRLTNYKSVTTVHRFEKENRIWTVVLESYVVDMPEGNSEDDTRMFADTVVKLNLQKLATVAEAMARNSGDGSGSQVT
notes: Yeast two-hybrid bait expressed in S. cerevisiae; also called WT
Turning to B1, the binding result in assay [1] and in assay [2] was “no binding (tested: 10 µM ABA)” throughout.
